In patent US11738096B2, “Method of detecting diseased or damaged tissue with a pH-triggered polypeptide fluorophore composition” (University of Rhode Island Board of Trustees, priority 2016, dated 2023):
Where a SMILES comes first, the peptide text is derived from it. The star is where a group is joined. X1 = CC1(C)C(/C=C/C=C/C=C/C=C2/N(CCCCCC(=O)NCCN3C(=O)CC(*)C3=O)c3ccc4ccccc4c3C2(C)C)=[N+](CCCCS(=O)(=O)[O-])c2ccc3ccccc3c21

How the values were obtained:
[1] = system: urothelial carcinoma in human bladder specimens; assay: Ex vivo NIR fluorescence imaging of radical cystectomy bladder specimens, 60 min instillation
Protocol: 22 urothelial carcinoma patients that were scheduled for radical cystectomy were selected over a twelve month period. After radical cystectomy, bladder specimens were immediately removed and irrigated 3 times for 5 min via catheter with non-buffered saline and instilled and incubated with 80 ml of 8 μM or 32.8 μg/ml (unless otherwise is stated, see notes to Table 8) of ICG-Var3 construct or ICG-Cys in PBS pH 7.4 containing 10 mM D-glucose for 60 minutes. Then, the unbound constructs were removed by rinsing with 80 ml of saline solution 3-5 times, the bladder was irrigated thoroughly with buffered saline and opened using a Y incision on the anterior wall. Using a da Vinci Si near-infrared fluorescence imaging system (Firefly^R), ex vivo fluorescent and white light imaging of the entire bladder and its parts was performed. The fluorescent spots were marked and standard pathological analysis was carried out to explore the correlation between appearance of fluorescent signal and cancer lesions.
The specimen was sectioned and submitted after 24 hour fixation in 10% phosphate-buffered formalin according to the standard institutional grossing manual, with emphasis on the marked areas of the bladder. The sections were processed for routine histology into paraffin-embedded blocks. […]
Statistical parameters were calculated according to the following equations: […]

[2] = NIR fluorescence imaging of blood vessels and blood flow (ear, leg, blood samples) in mice; format: in vivo, mouse; details: blood collected 5-120 min after IV injection
Protocol: Adult female nude mice (Envigo), 20 g in body mass were used in the study. Fluorescent constructs were given as a single tail vein injection in amounts of 100 μL of 40 μM in PBS. Imaging of mouse ear and leg was performed at 5, 30, 60, 90 and 120 min after construct administration. At 5, 30, 60, 90 and 120 min after construct administration 5 μL of blood was withdrawn from tail (and mixed with 5 μL of anticoagulating solution to preserve blood) while animal was under anesthesia. Mice were euthanized immediately after last imaging point (120 min). Blood collected from all animals was deposited on the glass slide, dried and imaged. Imaging was performed using Novadaq clinical imaging instrument. Autofluorescence was established by imaging mouse with no injection of fluorescent constructs (the level of autofluorescence signal was insignificant compared to the signal after the constructs administration).

[3] = system: 4T1 murine mammary carcinoma; assay: Tumor targeting in mice bearing 4T1 tumors; format: in vivo, mouse; details: 20 μM, IV, 16 h
Protocol: Adult female nude mice and female BALB/cAnNHsd mice (Envigo), 20-25 g in body mass were used in the study. Mouse mammary cancer 4T1 cells were subcutaneously implanted in the right flank (8×10^5 cells/0.1 mL/flank) of adult female BALB/cAnNHsd mice. Rat bladder cancer AY27 cells were subcutaneously implanted in the right flank (8×10^5 cells/0.1 mL/flank) of adult female nude mice. When tumors reached approximately 5-6 mm in diameter, single tail vein injection or single intraperitoneal injection of fluorophore-pHLIP® solutions in PBS were performed. Fluorescent constructs were used in amounts of 100 μL of 40 μM, or 100 μL of 20 μM, or 100 μL of 10 μM, or 100 μL of 5 μM. Imaging of mouse was performed at 16 hours after constructs administration. Skin was removed from the tumor site just before imaging while animal was under gas anesthesia, and mice were euthanized immediately after imaging. Tumor, kidney and liver were harvested, imaged and used for histopathological analysis. Imaging was performed using Stryker clinical imaging instrument. Autofluorescence was established by imaging mouse with no injection of fluorescent constructs (the level of autofluorescence signal was insignificant compared to the signal after the constructs administration).

With `CC(C)C[C@H](NC(=O)[C@H](Cc1ccc(O)cc1)NC(=O)[C@H](C)NC(=O)[C@H](CCCNC(=N)N)NC(=O)[C@H](Cc1c[nH]c2ccccc12)NC(=O)[C@@H]1CCCN1C(=O)[C@H](CC(N)=O)NC(=O)[C@H](CCC(N)=O)NC(=O)[C@H](CC(=O)O)NC(=O)[C@H](CC(=O)O)NC(=O)[C@H](CSC1CC(=O)N(CCNC(=O)CCCCCN2/C(=C/C=C/C=C/C=C/C3=[N+](CCCCS(=O)(=O)[O-])c4ccc5ccccc5c4C3(C)C)C(C)(C)c3c2ccc2ccccc32)C1=O)NC(=O)[C@H](C)N)C(=O)N[C@@H](CC(=O)O)C(=O)N[C@@H](CC(C)C)C(=O)N[C@@H](CC(C)C)C(=O)N[C@@H](Cc1ccccc1)C(=O)N1CCC[C@H]1C(=O)N[C@H](C(=O)N[C@@H](CC(=O)O)C(=O)N[C@H](C(=O)N[C@@H](CC(C)C)C(=O)N[C@@H](CC(C)C)C(=O)N[C@@H](CC(C)C)C(=O)N[C@@H](CC(=O)O)C(=O)N[C@@H](CC(C)C)C(=O)N[C@@H](CC(C)C)C(=O)N[C@@H](Cc1c[nH]c2ccccc12)C(=O)N[C@@H](C)C(=O)O)[C@@H](C)O)[C@@H](C)O` (stereo partly drawn) [ICG-Var3] (H-AC(X1)DDQNPWRAYLDLLFPTDTLLLDLLWA-OH) the “adverse morphological findings in specimens after incubation” value [1] was “did not show any adverse morphological findings”, the “fluorescent signal in blood samples” value [2] was “persistence of strong fluorescent signal within 2 hours” and the organ of clearance [3] was “cleared by the liver”.
